Experimental data from patent US20170258835A1 (University of Pennsylvania, published 2017).

The binders below were run against T1, CD27-Z CLEAR (UniProt P26842 20-260; P20963 52-163) (assay: flow cytometry, T cells co-electroporated with CD27-Z RNA and bi-specific antibody RNA, stained with anti-mouse IgG Fab (streptavidin APC) and anti-CD27 FITC; controls: CD27Z alone Q2 2.52 and Q3 9.39, NO EP Q2 0.089 and Q3 1.92).
T1 construct: also called CD27 CLEAR
T1 sequence (P26842 other isoform, or with tags, fused parts or gaps): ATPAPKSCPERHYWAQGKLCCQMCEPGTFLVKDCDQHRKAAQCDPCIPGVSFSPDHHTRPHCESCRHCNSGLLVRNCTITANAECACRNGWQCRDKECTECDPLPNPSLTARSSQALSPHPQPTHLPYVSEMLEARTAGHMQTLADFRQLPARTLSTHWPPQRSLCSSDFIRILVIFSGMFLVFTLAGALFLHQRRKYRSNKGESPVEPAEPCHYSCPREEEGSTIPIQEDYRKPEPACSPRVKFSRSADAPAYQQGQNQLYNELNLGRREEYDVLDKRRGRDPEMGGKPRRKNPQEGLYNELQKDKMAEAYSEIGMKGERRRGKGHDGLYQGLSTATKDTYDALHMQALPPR

percent of cells CD27+ mIgG Fab+ (Q2) | percent of cells CD27- mIgG Fab+ (Q3) | Binder
7.58 | 18.8 | M708.CD19 bi-specific antibody (bispecific antibody, anti-CD27 (M708) x anti-CD19; also called aCD27-aCD19) DIQMTQSPSSLSASVGDRVTITCRASKSVSTSGYSFMHWYQQKPGKAPKLLIYVGSRLDYGVPSRFSGSGSGTDFTLTISSLQPEDFATYYCQHSRELPWTFGQGTKVEIKGGGGSGGGGSGGGGSEVQLLESGGGLVQPGGSLRLSCAASGFTFSSYTMSWVRQAPGKGLEWVSVIDHGGGSTHYPDSVKGRFTISRDNSKNTLYLQMNSLRAEDTAVYYCARHRGNPFDYWGQGTLVTVSSGGGGSDIQMTQTTSSLSASLGDRVTISCRASQDISKYLNWYQQKPDGTVKLLIYHTSRLHSGVPSRFSGSGSGTDYSLTISNLEQEDIATYFCQQGNTLPYTFGGGTKLEITGGGGSGGGGSGGGGSEVKLQESGPGLVAPSQSLSVTCTVSGVSLPDYGVSWIRQPPRKGLEWLGVIWGSETTYYNSALKSRLTIIKDNSKSQVFLKMNSLQTDDTAIYYCAKHYYYGGSYAMDYWGQGTSVTVSS
0.35 | 52.2 | M709.CD19 bi-specific antibody (bispecific antibody, anti-CD27 (M709) x anti-CD19; also called aCD27-aCD19) DIVMTQSPDSLAVSLGERATINCKASQSVDYAGESFMNWYQQKPGQPPKLLIYAASNLESGVPDRFSGSGSGTDFTLTISSLQAEDVAVYYCQQSNEDPYTFGQGTKLEIKGGGGSGGGGSGGGGSEVQLVQSGAEVKKPGESLKISCKGSGYAFSSSWMNWVRQMPGKGLEWMGRIYAGDADTAYSPSFQGQVTISADKSISTAYLQWSSLKASDTAMYYCARSDYYGDYGFAYWGQGTLVTVSSGGGGSDIQMTQTTSSLSASLGDRVTISCRASQDISKYLNWYQQKPDGTVKLLIYHTSRLHSGVPSRFSGSGSGTDYSLTISNLEQEDIATYFCQQGNTLPYTFGGGTKLEITGGGGSGGGGSGGGGSEVKLQESGPGLVAPSQSLSVTCTVSGVSLPDYGVSWIRQPPRKGLEWLGVIWGSETTYYNSALKSRLTIIKDNSKSQVFLKMNSLQTDDTAIYYCAKHYYYGGSYAMDYWGQGTSVTVSS
13.8 | 84.2 | C2177.CD19 bi-specific antibody (bispecific antibody, anti-CD27 (C2177) x anti-CD19; also called aCD27-aCD19) DIVLTQSPASLAVSLGQRATISCKASQSVDYAGDSYMNWYQQKPGQPPKLLIYAASNLESGIPARFSGSGSGTDFTLNIHPVEEEDAATYYCQQSNEDPYTFGGGTKLEIKGGGGSGGGGSGGGGSQVQLQQSGPELVKPGASVKISCKASGYAFSSSWMNWVKQRPGKGLEWIGRIYPGDGDTNYNGKFKGKATLTADKSSSTAYMQLSSLTSEDSAVYFCARSDYYGDYGFAYWGQGTLVTVSAGGGGSDIQMTQTTSSLSASLGDRVTISCRASQDISKYLNWYQQKPDGTVKLLIYHTSRLHSGVPSRFSGSGSGTDYSLTISNLEQEDIATYFCQQGNTLPYTFGGGTKLEITGGGGSGGGGSGGGGSEVKLQESGPGLVAPSQSLSVTCTVSGVSLPDYGVSWIRQPPRKGLEWLGVIWGSETTYYNSALKSRLTIIKDNSKSQVFLKMNSLQTDDTAIYYCAKHYYYGGSYAMDYWGQGTSVTVSS
